In the test the target is M-CDP04 (αMCL1). Briefly: BLI; biotinylated BCL2 homolog (25 nM) immobilised on streptavidin biosensors, designed protein in solution at defined concentrations; Octet RED96; 10 mM HEPES pH 7.4, 150 mM NaCl, 3 mM EDTA, 0.05% surfactant P20, 0.5% non-fat dry milk; titrations in triplicate, 1:1 binding model. Conditions: both partners purified.

Several values for one entry are separate records, joined by “and”; a condition that tells them apart may be missing. Equal entries are not always repeated.

B1: Bcl-B (natural protein)
chain: ADPLRERTELLLADYLGYCAREPGTPEPAPSTPEAAVLRSAAARLRQIHRSFFSAYLGYPGNRFELVALMADSVLSDSPGPTWGRVVTLVTFAGTLLERGPLVTARWKKWGFQPRLKEQEGDVARDCQRLVALLSSRLMGQHRAWLQAQGGWDGFCHFFRTPFPLA
modifications: biotin (enzymatic, BirA)
Broadly, the koff is the rate constant with which the complex falls apart. Lower therefore signals slow dissociation. As usually defined, the kon is a measure of how fast the partners come together. Higher therefore signals faster complex formation. In the case of B1, the koff was 0.199 s⁻¹ and 0.186 s⁻¹ and 0.148 s⁻¹ and 0.178 s⁻¹; the kon is 5830 M⁻¹ s⁻¹ and 9300 M⁻¹ s⁻¹ and 13200 M⁻¹ s⁻¹ and 9440 M⁻¹ s⁻¹.
